Results reported in doi:10.1101/2021.03.16.435520 (bioRxiv, 2021).

Target: the molecule itself
Test: cross-linking

B1: IRE1-KR-R887A, unphosphorylated (domain or fragment)
chain: GSSPSLEQDDGDEETSVVIVGKISFCPKDVLGHGAEGTIVYRGMFDNRDVAVKRILPECFSFADREVQLLRESDEHPNVIRYFCTEKDRQFQYIAIELCAATLQEYVEQKDFAHLGLEPITLLQQTTSGLAHLHSLNIVHRDLKPHNILISMPNAHGKIKAMISDFGLCKKLAVGRHSFSRRSGVPGTEGWIAPEMLSEDCKENPTYTVDIFSAGCVFYYVISEGSHPFGKSLQRQANILLGACSLDCLHPEKHEDVIARELIEKMIAMDPQKRPSAKHVLKHPFFWSLEKQLQFFQDVSDRIEKESLDGPIVKQLERGGRAVVKMDWRENITVPLQTDLAKFRTYKGGSVRDLLRAMRNKKHHYRELPAEVRETLGSLPDDFVCYFTSRFPHLLAHTYRAMELCSHERLFQPYYFHEPPEPQPPVTPDAL
Question: With B1 as the protein, how does the “stoichiometry N” value read?
Answer: The value was 2.
